We go through one molecule from patent publication US20190276796A1 (Seagen, published 2019).

In one test the target is T1, human FcγRIIIA V158 (human, UniProt P08637 17-254).
T1 construct: whole, on cells; also called huFcγRIIIA V158; human Fcγ receptor (CD16)
The experiment in a line: competition flow cytometry on CHO DG-44 cells expressing human FcγRIIIA V158; competitor 50 nmol/L Alexa Fluor 488 labeled anti-CD70 IgG1. A general note: A flow cytometer gives signals particle by particle.

Another test has as its target T2, murine FcγRIV (murine, UniProt A0A0B4J1G0 21-249).
T2 construct: also called muFcγRIV; murine Fcγ receptor (CD16)
T2 sequence: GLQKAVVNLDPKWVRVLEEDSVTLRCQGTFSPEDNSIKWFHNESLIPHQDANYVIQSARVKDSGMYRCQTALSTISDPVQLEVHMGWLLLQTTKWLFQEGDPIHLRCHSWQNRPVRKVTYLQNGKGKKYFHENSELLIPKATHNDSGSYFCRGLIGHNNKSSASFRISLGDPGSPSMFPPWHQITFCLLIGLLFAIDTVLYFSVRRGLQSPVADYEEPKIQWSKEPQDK
The test is described as follows: competition flow cytometry on CHO DG-44 cells expressing murine FcγRIV; competitor 200 nmol/L Alexa Fluor 488 labeled anti-CD70 IgG1.

T1 sequence (P08637 17-254 F176V): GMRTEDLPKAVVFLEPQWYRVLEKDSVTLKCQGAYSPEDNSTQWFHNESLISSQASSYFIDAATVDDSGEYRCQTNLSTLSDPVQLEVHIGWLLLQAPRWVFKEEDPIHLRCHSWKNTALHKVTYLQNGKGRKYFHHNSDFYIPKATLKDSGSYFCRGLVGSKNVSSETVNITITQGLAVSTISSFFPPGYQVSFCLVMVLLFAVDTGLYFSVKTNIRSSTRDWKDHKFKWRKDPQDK

B1: control h1F6 antibody (humanized IgG1 anti-CD70 monoclonal antibody, from CHO DG44 cells cultured without fucose analog; core fucosylated) (antibody)
chain 1: QVQLVQSGAEVKKPGASVKVSCKASGYTFTNYGMNWVRQAPGQGLKWMGWINTYTGEPTYADAFKGRVTMTRDTSISTAYMELSRLRSDDTAVYYCARDYGDYGMDYWGQGTTVTVSSASTKGPSVFPLAPCSRSTSESTAALGCLVKDYFPEPVTVSWNSGALTSGVHTFPAVLQSSGLYSLSSVVTVPSSNFGTQTYTCNVDHKPSNTKVDKTVERKCCVECPPCPAPPVAGPSVFLFPPKPKDTLMISRTPEVTCVVVDVSHEDPEVQFNWYVDGVEVHNAKTKPREEQFNSTFRVVSVLTVVHQDWLNGKEYKCKVSNKGLPAPIEKTISKTKGQPREPQVYTLPPSREEMTKNQVSLTCLVKGFYPSDIAVEWESNGQPENNYKTTPPMLDSDGSFFLYSKLTVDKSRWQQGNVFSCSVMHEALHNHYTQKSLSLSPGK
chain 2: DIVMTQSPDSLAVSLGERATINCRASKSVSTSGYSFMHWYQQKPGQPPKLLIYLASNLESGVPDRFSGSGSGTDFTLTISSLQAEDVAVYYCQHSREVPWTFGQGTKVEIKRTVAAPSVFIFPPSDEQLKSGTASVVCLLNNFYPREAKVQWKVDNALQSGNSQESVTEQDSKDSTYSLSSTLTLSKADYEKHKVYACEVTHQGLSSPVTKSFNRGEC
On to B1, for which the half-maximal effective concentration (EC50) was 113 nM with human FcγRIIIA V158 and 369 nM in the test with murine FcγRIV.

A word on the EC50: it is the concentration that produces a half-maximal response. Read a low EC50 as higher potency in that assay.
